# Numbering of substitutions follows the chain as printed. Names may count otherwise.
# B1: OCT1*1 (WT) (Homo sapiens) (protein)
# chain: MPTVDDILEQVGESGWFQKQAFLILCLLSAAFAPICVGIVFLGFTPDHHCQSPGVAELSQRCGWSPAEELNYTVPGLGPAGEAFLGQCRRYEVDWNQSALSCVDPLASLATNRSHLPLGPCQDGWVYDTPGSSIVTEFNLVCADSWKLDLFQSCLNAGFLFGSLGVGYFADRFGRKLCLLGTVLVNAVSGVLMAFSPNYMSMLLFRLLQGLVSKGNWMAGYTLITEFVGSGSRRTVAIMYQMAFTVGLVALTGLAYALPHWRWLQLAVSLPTFLFLLYYWCVPESPRWLLSQKRNTEAIKIMDHIAQKNGKLPPADLKMLSLEEDVTEKLSPSFADLFRTPRLRKRTFILMYLWFTDSVLYQGLILHMGATSGNLYLDFLYSALVEIPGAFIALITIDRVGRIYPMAMSNLLAGAACLVMIFISPDLHWLNIIIMCVGRMGITIAIQMICLVNAELYPTFVRNLGVMVCSSLCDIGGIITPFIVFRLREVWQALPLILFAVLGLLAAGVTLLLPETKGVALPETMKDAENLGRKAKPKENTIYLKVQTSEPSGT
# B2: wild-type OCT2 (Homo sapiens; S270A) (protein)
# chain: MPTTVDDVLEHGGEFHFFQKQMFFLLALLSATFAPIYVGIVFLGFTPDHRCRSPGVAELSLRCGWSPAEELNYTVPGPGPAGEASPRQCRRYEVDWNQSTFDCVDPLASLDTNRSRLPLGPCRDGWVYETPGSSIVTEFNLVCANSWMLDLFQSSVNVGFFIGSMSIGYIADRFGRKLCLLTTVLINAAAGVLMAISPTYTWMLIFRLIQGLVSKAGWLIGYILITEFVGRRYRRTVGIFYQVAYTVGLLVLAGVAYALPHWRWLQFTVALPNFFFLLYYWCIPESPRWLISQNKNAEAMRIIKHIAKKNGKSLPASLQRLRLEEETGKKLNPSFLDLVRTPQIRKHTMILMYNWFTSSVLYQGLIMHMGLAGDNIYLDFFYSALVEFPAAFMIILTIDRIGRRYPWAASNMVAGAACLASVFIPGDLQWLKIIISCLGRMGITMAYEIVCLVNAELYPTFIRNLGVHICSSMCDIGGIITPFLVYRLTNIWLELPLMVFGVLGLVAGGLVLLLPETKGKALPETIEEAENMQRPRKNKEKMIYLQVQKLDIPLN
# B3: OCT2 variant A270S (Homo sapiens) (protein)
# chain: B2 chain with A270S
# Assays:
# SERT = SERT (Homo sapiens, UniProt P31645); test: Screening of cellular uptake at 1 µM, SERT-overexpressing HEK293 cells over empty vector control cells; assay type: in vitro ADME; conditions: 2 min
# OCT2 = target: T1, OCT2 (Homo sapiens, UniProt O15244); test: Screening of cellular uptake at 1 µM, OCT2-overexpressing HEK293 cells over empty vector control cells; conditions: 2 min
# T1 sequence (O15244 1-555 S270A): B2 chain
# Text: (§1) Koepsell and Gorbulev (University of Würzburg, Germany).
# (§2) Eighteen psychostimulants and hallucinogens were initially screened for their potential to be substrates for different polyspecific OCTs and high-affinity monoamine neurotransmitter transporters (Figure 3), as well as for the efflux transporter MATE2-K (Supplementary Figure S1).
# [1] = cited from earlier work
# wild-type OCT2 = target: T2, wild-type OCT2 (Homo sapiens, UniProt O15244); test: Concentration-dependent transport by wild-type OCT2 in HEK293 cells; conditions: for vmax: OCT2 WT
# T2 sequence (O15244 1-555 S270A): B2 chain
# OCT2 variant A270S = target: T3, OCT2 variant A270S (Homo sapiens, UniProt O15244); test: Concentration-dependent transport by OCT2 variant A270S in HEK293 cells; conditions: OCT2 A270S
# T3 sequence (O15244 1-555): B2 chain with A270S
# OCT3 = target: T4, OCT3 (Homo sapiens, UniProt O75751); test: Screening of cellular uptake at 1 µM, OCT3-overexpressing HEK293 cells over empty vector control cells; assay type: in vitro ADME; conditions: 2 min
# T4 construct: Koepsell and Gorbulev (University of Würzburg); host or cells: HEK293
# T4 sequence (O75751 1-556): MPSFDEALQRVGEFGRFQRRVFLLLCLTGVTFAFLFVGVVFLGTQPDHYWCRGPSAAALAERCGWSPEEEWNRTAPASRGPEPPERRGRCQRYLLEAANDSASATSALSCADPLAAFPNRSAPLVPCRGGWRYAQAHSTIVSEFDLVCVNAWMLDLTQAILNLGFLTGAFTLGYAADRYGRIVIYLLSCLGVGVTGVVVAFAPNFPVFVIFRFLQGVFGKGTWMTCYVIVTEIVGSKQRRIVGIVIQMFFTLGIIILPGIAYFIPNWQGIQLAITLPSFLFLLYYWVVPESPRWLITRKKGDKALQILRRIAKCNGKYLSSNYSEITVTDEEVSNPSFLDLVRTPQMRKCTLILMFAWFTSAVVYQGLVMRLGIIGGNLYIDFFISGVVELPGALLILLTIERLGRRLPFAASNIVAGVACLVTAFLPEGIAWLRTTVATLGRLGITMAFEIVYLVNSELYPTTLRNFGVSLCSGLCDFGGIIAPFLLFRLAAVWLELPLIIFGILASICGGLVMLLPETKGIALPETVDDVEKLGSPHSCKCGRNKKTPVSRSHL
# Text: as §1, §2
# not read [2] = substrate: COc1cc(CCN)cc(OC)c1OC; test: not read; conditions: other: OCT1*1 (WT); net transport, 2 min; pH 7.4; 37.0 °C
# not read [3] = substrate: CN(C)CCc1c[nH]c2ccccc12; test: not read; conditions: pH 7.4
# not read [4] = substrate: CN[C@@H](C)[C@H](O)c1ccccc1; test: not read; conditions: pH 7.4, 37.0 °C
# not read [5] = substrate: CNC(C)Cc1ccc(OC)cc1; test: not read; conditions: pH 7.4
# not read [6] = substrate: CN[C@@H](C)Cc1ccccc1; test: not read; conditions: other: OCT2 A270S; pH 7.4; 37.0 °C
# Chain of SERT (P31645 whole entry): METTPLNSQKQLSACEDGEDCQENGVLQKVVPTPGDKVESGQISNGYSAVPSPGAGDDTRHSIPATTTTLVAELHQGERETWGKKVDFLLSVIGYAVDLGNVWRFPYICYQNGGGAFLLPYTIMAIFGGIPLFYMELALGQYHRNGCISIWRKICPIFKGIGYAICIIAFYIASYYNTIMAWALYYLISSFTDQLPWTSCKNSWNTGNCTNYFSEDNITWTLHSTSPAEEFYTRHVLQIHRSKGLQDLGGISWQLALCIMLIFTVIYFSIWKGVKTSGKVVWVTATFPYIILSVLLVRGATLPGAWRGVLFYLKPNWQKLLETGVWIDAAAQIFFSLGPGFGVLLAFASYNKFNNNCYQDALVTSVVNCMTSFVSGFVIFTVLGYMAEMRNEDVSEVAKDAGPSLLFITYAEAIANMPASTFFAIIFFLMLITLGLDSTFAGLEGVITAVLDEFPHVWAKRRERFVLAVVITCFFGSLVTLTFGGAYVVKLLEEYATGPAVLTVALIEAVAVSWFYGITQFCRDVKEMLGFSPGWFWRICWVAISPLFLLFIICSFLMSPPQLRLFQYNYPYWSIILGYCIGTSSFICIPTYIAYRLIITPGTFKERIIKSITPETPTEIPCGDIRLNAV
molecule,measurement,setting,value
"COc1ccc(CC(C)N)cc1 (stereo not shown) [PMA, para-methoxyamphetamine]",ratio of uptake in transporter-transfected cells over empty vector control cells,SERT,slightly higher (albeit still low) uptake
"CNC(C)Cc1ccc(OC)cc1 (stereo not shown) [PMMA, para-methoxymethamphetamine]",ratio of uptake in transporter-transfected cells over empty vector control cells,OCT2,approximately 3 fold
same,ratio of uptake in transporter-transfected cells over empty vector control cells,SERT,slightly higher (albeit still low) uptake
C[C@H](N)C(=O)c1ccccc1 [Cathinone],renal elimination (unchanged in urine),"[1]; ref Kalix and Braenden, 1985, Toennes and Kauert, 2002",2–7%
"CN(C)CCc1c[nH]c2ccccc12 [DMT, dimethyltryptamine]",ratio of uptake in transporter-transfected cells over empty vector control cells,OCT2,approximately 3 fold
same,excreted unchanged in urine,"[1]; following intramuscular administration, ref Sitaram et al., 1987, Barker, 2018",0.16%
CN[C@@H](C)Cc1ccccc1 [Methylamphetamine],vmax,wild-type OCT2; listed as Methamphetamine,70.7 (± 8.3) pmol × mg protein^-1 × min^-1
same,vmax,wild-type OCT2; listed as methamphetamine,70.7 ± 8.3 pmol × mg protein^-1 × min^-1
same,Km at 2 min,"wild-type OCT2; human, pH 7.4",11.9 µM
same,vmax,OCT2 variant A270S,34.5 (± 8.5) pmol × mg protein^-1 × min^-1
same,ratio of uptake in transporter-transfected cells over empty vector control cells,OCT2,4- to 6 fold
same,renal elimination,"[1]; ref Toennes and Kauert, 2002, www.dosing.de and www.drugbank.ca",30–54%
CC(N)Cc1ccccc1 (stereo not shown) [Amphetamine],ratio of uptake in transporter-transfected cells over empty vector control cells,OCT3,does not appear to be a substrate
B1,Km,not read [2],24.3 (±6.3) µM
same,Vmax,not read [2],0.000642 µmol/min/mg
B2,Km,not read [3]; other: OCT2 WT,13.0 (± 3.7) μM
same,Vmax,not read [3]; other: OCT2 WT,296.7 (± 23.3) pmol × mg protein^-1 × min^-1
same,Km,not read [4]; other: OCT2 WT,15.7 (± 4.6) μM
same,Vmax,not read [4]; other: OCT2 WT,417.8 (± 35.6) pmol × mg protein^-1 × min^-1
same,Km,not read [5]; other: OCT2 WT,7.9 (± 2.6) μM
same,Vmax,not read [5]; other: OCT2 WT,225.1 (± 19.3) pmol × mg protein^-1 × min^-1
B3,Km,not read [6],24.3 (± 17.0) μM
same,Km,not read [3]; other: OCT2 A270S,14.2 (± 7.9) μM
same,Vmax,not read [3]; other: OCT2 A270S,164.2 (± 25.9) pmol × mg protein^-1 × min^-1
same,Km,not read [4]; other: OCT2 A270S,14.7 (± 4.1) μM
same,Vmax,not read [4]; other: OCT2 A270S,229.5 (± 18.2) pmol × mg protein^-1 × min^-1
same,Km,not read [5]; other: OCT2 A270S,14.4 (± 8.6) μM
same,Vmax,not read [5]; other: OCT2 A270S,172.1 (± 31.5) pmol × mg protein^-1 × min^-1

# Source: PMC7854383, “Cellular Uptake of Psychostimulants – Are High- and Low-Affinity Organic Cation Transporters Drug Traffickers?” (Frontiers in Pharmacology, 2021)
